Laboratory results published in article PMC9402603.

Columns and labels:
[1] = biological target: ChbG from Klebsiella pneumoniae (chitooligosaccharide deacetylase), wild type (Klebsiella pneumoniae) (UniProt A6T7U7); assay: SEC; Superdex 200 Increase 10/300 GL (24 mL), 20 mM Tris-HCl pH 8.0, 150 mM NaCl, 0.4 mL/min, 4 °C; wild type elutes at approximately 15 mL, E23K/D224K at approximately 17 mL
[2] = biological target: ChbG from Klebsiella pneumoniae (chitooligosaccharide deacetylase), wild type (Klebsiella pneumoniae) (UniProt A6T7U7); assay: SEC-MALS; kpChbG 5 mg/mL, Superdex 200 10/300, SEC buffer (20 mM Tris-HCl pH 8.0, 150 mM NaCl), 0.4 mL/min, 25 °C, DAWN-Treos MALS detector
[3] = biological target: kpChbG E23K/D224K double-mutant (Klebsiella pneumoniae) (UniProt A6T7U7)

Row | stoichiometry N [1] | stoichiometry N [2] | Substance | deacetylation of N,N’-diacetylchitobiose measured by ESI-MS, dimerization disrupting mutant E23K/D224K against wild type [3] [%]
1 | 2 | 2 | ChbG from Klebsiella pneumoniae (chitooligosaccharide deacetylase), wild type (from UniProt A6T7U7 1-252) (enzyme) | –
2 | – | – | kpChbG E23K/D224K double-mutant (from UniProt A6T7U7 1-252) (enzyme) | > 50
